Experiment [1] has as its target Full-length HIV-1 IN fused to the DNA binding domain of Gal4 (WT bait) (HIV-1). Kind of experiment: two-hybrid.
The target in experiment [2] is KKK HIV-1 IN (D6K/E10K/E13K) fused to the DNA binding domain of Gal4 (HIV-1). The experiment is described as follows: two-hybrid; Gal4 DBD-IN bait and Gal4 AD-LEDGF IBD prey in S. cerevisiae Y187; β-galactosidase activity relative to WT bait/WT prey (100%); background: WT IN with empty prey vector.
Experiment [3] addresses LEDGF IBD fused to Gal4 transcription activation domain (WT prey). The experiment is described as follows: yeast two-hybrid (β-galactosidase reporter). The following applies: S. cerevisiae Y187; quadruplicate measurements; read off a plot.

With “AAA LEDGF IBD (K401A/K402A/R405A) fused to Gal4 transcription activation domain (domain or fragment)”, the binding relative to WT (β-galactosidase activity) in experiment [1] was 5 % of WT.

As to “EEE LEDGF IBD (K401E/K402E/R405E) fused to Gal4 transcription activation domain (domain or fragment)”, in experiment [2], the β-galactosidase activity relative to WT-WT is 40 % of WT-WT. Consider “Full-length HIV-1 IN fused to the DNA binding domain of Gal4 (WT bait) D6K; E10K; E13K”, for which the percent of parent in experiment [3] is 1.2 % of WT/WT. On to “Full-length HIV-1 IN fused to the DNA binding domain of Gal4 (WT bait) E10K; E13K”, for which the percent of parent in experiment [3] is 1.3 % of WT/WT.

The record behind these values is paper PMC2606027.
